# Read-outs that look alike come from different tables or passages of the source.
# B1: PAM_(AP53_medium), truncated PAM_(AP53), residues 42-207 (HVR-a1a2-B-c1) (domain or fragment)
# chain: NRADDARNEVLRGNLVRAELWYRQIQENDQLKLENKGLKTDLREKEEELQGLKDDVEKLTADAELQRLKNERHEEAELERLKSERHDHDKKEAERKALEDKLADKQEHLNGALRYINEKEAEAKEKEAEQKKLKEEKQISDASRQGLRRDLDASREAKKQVEKDLA
# modifications: Paper number minus 12 gives the entry number. His6 left out. About 11% dimer at 25 C
# B2: VEK75_(AP53), peptide of PAM_(AP53) residues 97-171 (peptide)
# chain: VEKLTADAELQRLKNERHEEAELERLKSERHDHDKKEAERKALEDKLADKQEHLNGALRYINEKEAEAKEKEAEQ
# modifications: Paper number minus 12 gives the entry number. N-terminal GS left by thrombin cleavage is omitted
# B3: PAM_(AP53_long), truncated PAM_(AP53), residues 42-338 (HVR-a1a2-B-c1c2c3-D) (domain or fragment)
# chain: NRADDARNEVLRGNLVRAELWYRQIQENDQLKLENKGLKTDLREKEEELQGLKDDVEKLTADAELQRLKNERHEEAELERLKSERHDHDKKEAERKALEDKLADKQEHLNGALRYINEKEAEAKEKEAEQKKLKEEKQISDASRQGLRRDLDASREAKKQVEKDLANLTAELDKVKEEKQISDASRQGLRRDLDASREAKKQVEKGLANLTAELDKVKEEKQISDASRQGLRRDLDASREAKKQVEKALEEANSKLAALEKLNKELEESKKLTEKEKAELQAKLEAEAKALKEQLAK
# modifications: Paper number minus 12 gives the entry number. His6 left out. Coiled-coil dimer (87% at 25 C)
# Key:
# [1] = molecular target: human plasminogen (human) (UniProt P00747); assay: SPR
# Chain of human plasminogen (human) (P00747 20-810): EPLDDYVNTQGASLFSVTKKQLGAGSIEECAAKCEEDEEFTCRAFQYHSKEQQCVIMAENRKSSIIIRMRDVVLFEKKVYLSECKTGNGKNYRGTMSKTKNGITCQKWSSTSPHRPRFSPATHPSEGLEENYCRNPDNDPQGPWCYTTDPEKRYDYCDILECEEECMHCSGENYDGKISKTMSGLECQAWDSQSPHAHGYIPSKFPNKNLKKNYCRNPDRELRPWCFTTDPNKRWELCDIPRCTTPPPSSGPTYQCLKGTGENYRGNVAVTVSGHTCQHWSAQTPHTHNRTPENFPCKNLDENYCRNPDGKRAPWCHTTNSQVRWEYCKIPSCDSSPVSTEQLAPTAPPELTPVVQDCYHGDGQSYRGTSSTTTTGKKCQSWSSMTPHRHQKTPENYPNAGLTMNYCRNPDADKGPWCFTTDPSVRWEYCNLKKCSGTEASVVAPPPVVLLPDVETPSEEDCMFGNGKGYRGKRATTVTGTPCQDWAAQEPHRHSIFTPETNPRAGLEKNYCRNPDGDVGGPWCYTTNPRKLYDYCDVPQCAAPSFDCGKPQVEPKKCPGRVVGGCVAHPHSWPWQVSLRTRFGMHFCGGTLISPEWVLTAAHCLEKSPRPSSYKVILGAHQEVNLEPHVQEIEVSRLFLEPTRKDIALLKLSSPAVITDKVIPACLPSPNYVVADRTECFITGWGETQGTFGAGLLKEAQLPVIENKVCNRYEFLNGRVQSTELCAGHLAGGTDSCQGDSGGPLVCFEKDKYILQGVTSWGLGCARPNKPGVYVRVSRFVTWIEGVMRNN
# [2] = molecular target: PAM_(SS1574), PAM of GAS isolate SS1574 (emm224), residues 42-360 (Streptococcus pyogenes (GAS) isolate SS1574 (emm224)) (UniProt P49054); assay: AUC
# [3] = molecular target: PAM_(SS1574), PAM of GAS isolate SS1574 (emm224), residues 42-360 (Streptococcus pyogenes (GAS) isolate SS1574 (emm224)) (UniProt P49054); assay: AUC; remark: listed apart in the source
# [4] = molecular target: PAM_(SS1572), PAM of GAS isolate SS1572 (emm223), residues 42-399 (Streptococcus pyogenes (GAS) isolate SS1572 (emm223)); assay: AUC
# [5] = molecular target: PAM_(SS1572), PAM of GAS isolate SS1572 (emm223), residues 42-399 (Streptococcus pyogenes (GAS) isolate SS1572 (emm223)); assay: AUC; remark: listed apart in the source
# [6] = molecular target: human plasminogen (human) (UniProt P00747); assay: SPR; remark: listed apart in the source
# [7] = molecular target: human plasminogen (human) (UniProt P00747); assay: SPR; remark: listed apart in the source
# [8] = molecular target: human plasminogen (human) (UniProt P00747); assay: SPR; remark: listed apart in the source
# [9] = molecular target: human plasminogen (human) (UniProt P00747); assay: SPR; remark: listed apart in the source
# [10] = molecular target: PAM_(NS88.2), PAM of GAS isolate NS88.2 (emm98.1), residues 42-385 (Streptococcus pyogenes (GAS) isolate NS88.2 (emm98.1)) (UniProt P49054); assay: AUC
# [11] = molecular target: PAM_(NS88.2), PAM of GAS isolate NS88.2 (emm98.1), residues 42-385 (Streptococcus pyogenes (GAS) isolate NS88.2 (emm98.1)) (UniProt P49054); assay: AUC; remark: listed apart in the source
# [12] = molecular target: PAM_(NS223), PAM of GAS isolate NS223 (emm91), residues 42-399 (Streptococcus pyogenes (GAS) isolate NS223 (emm91)); assay: AUC
# [13] = molecular target: PAM_(NS223), PAM of GAS isolate NS223 (emm91), residues 42-399 (Streptococcus pyogenes (GAS) isolate NS223 (emm91)); assay: AUC; remark: listed apart in the source
# [14] = molecular target: PAM_(NS455), PAM of GAS isolate NS455 (emm52), residues 42-401 (Streptococcus pyogenes (GAS) isolate NS455 (emm52)); assay: AUC
# [15] = molecular target: PAM_(NS455), PAM of GAS isolate NS455 (emm52), residues 42-401 (Streptococcus pyogenes (GAS) isolate NS455 (emm52)); assay: AUC; remark: listed apart in the source
# [16] = molecular target: PAM_(SS1448), PAM of GAS isolate SS1448 (emm86.2), residues 42-375 (Streptococcus pyogenes (GAS) isolate SS1448 (emm86.2)) (UniProt P49054); assay: AUC
# [17] = molecular target: PAM_(SS1448), PAM of GAS isolate SS1448 (emm86.2), residues 42-375 (Streptococcus pyogenes (GAS) isolate SS1448 (emm86.2)) (UniProt P49054); assay: AUC; remark: listed apart in the source
# human plasminogen [18] = molecular target: T1, human plasminogen (human, UniProt P00747 20-810); assay: SPR
# T1 sequence (P00747 20-810): as above
# human plasminogen [19] = molecular target: T1, human plasminogen; assay: SPR; remark: listed apart in the source
# human plasminogen [20] = molecular target: T1, human plasminogen; assay: SPR; remark: listed apart in the source
# human plasminogen [21] = molecular target: T1, human plasminogen; assay: SPR; remark: listed apart in the source
# human plasminogen [22] = molecular target: T1, human plasminogen; assay: SPR; remark: listed apart in the source
molecule,measurement,setting,value
"PAM_(SS1574), PAM of GAS isolate SS1574 (emm224), residues 42-360 (from UniProt P49054 42-360) (natural protein)",Kd,[1],0.014 µM
same,koff,[1],0.0075 s⁻¹
same,kon,[1],562000 M⁻¹ s⁻¹
same,% dimer,[2],100%
same,% dimer,[3],33.5%
"PAM_(SS1572), PAM of GAS isolate SS1572 (emm223), residues 42-399 (natural protein)",Kd,[1],0.04 µM
same,koff,[1],0.0055 s⁻¹
same,kon,[1],170000 M⁻¹ s⁻¹
same,% dimer,[4],95%
same,% dimer,[5],75.3%
"PAM_(AP53), plasminogen-binding group A streptococcal M-protein of GAS isolate AP53 (emm53), residues 42-392 (natural protein)",Kd,[1],0.021 µM
same,koff,[1],0.0043 s⁻¹
same,kon,[1],210000 M⁻¹ s⁻¹
"KTI55_(SS1448), peptide of PAM_(SS1448) residues 85-139 (from UniProt P49054 85-139)",Kd,[6],1.5 µM
same,Kd,[1],0.36 µM
same,Kd,[7],27 µM
same,Kd,[8],0.54 µM
same,Kd,[9],2.1 µM
"AGL55_(NS88.2), peptide of PAM_(NS88.2) residues 95-149 (from UniProt P49054 95-149)",Kd,[6],0.83 µM
same,Kd,[1],0.16 µM
same,Kd,[7],7.1 µM
same,Kd,[8],0.35 µM
same,Kd,[9],0.63 µM
"PAM_(NS88.2), PAM of GAS isolate NS88.2 (emm98.1), residues 42-385 (from UniProt P49054 42-385) (natural protein)",Kd,[1],5.7 µM
same,% dimer,[10],91.4%
same,% dimer,[11],55.5%
"PAM_(NS223), PAM of GAS isolate NS223 (emm91), residues 42-399 (natural protein)",koff,[1],0.0056 s⁻¹
same,% dimer,[12],94.5%
same,% dimer,[13],33.7%
"PAM_(NS455), PAM of GAS isolate NS455 (emm52), residues 42-401 (natural protein)",Kd,[1],0.006 µM
same,koff,[1],0.0014 s⁻¹
same,kon,[1],340000 M⁻¹ s⁻¹
same,% dimer,[14],86.8%
same,% dimer,[15],20.4%
"PAM_(SS1448), PAM of GAS isolate SS1448 (emm86.2), residues 42-375 (from UniProt P49054 42-375) (natural protein)",Kd,[1],7 µM
same,% dimer,[16],86.7%
same,% dimer,[17],56.4%
B1,Kd,human plasminogen [18],0.016 µM
same,koff,human plasminogen [18],0.0103 s⁻¹
same,kon,human plasminogen [18],650000 M⁻¹ s⁻¹
same,Kd,human plasminogen [19],0.0024 µM
same,koff,human plasminogen [19],0.00054 s⁻¹
same,kon,human plasminogen [19],230000 M⁻¹ s⁻¹
B2,Kd,human plasminogen [20],0.0007 µM
same,Kd,human plasminogen [21],0.015 µM
same,Kd,human plasminogen [22],0.045 µM
B3,Kd,human plasminogen [18],0.037 µM
same,koff,human plasminogen [18],0.0043 s⁻¹
same,kon,human plasminogen [18],120000 M⁻¹ s⁻¹
same,Kd,human plasminogen [19],0.002 µM
same,koff,human plasminogen [19],0.00013 s⁻¹
same,kon,human plasminogen [19],90000 M⁻¹ s⁻¹

# Reference: article PMC6502667 (Journal of structural biology, 2019)
